Results published in patent US20150233949A1, “DETECTION AND MODULATION OF CYTOCHROME C ACETYLATION” (President and Fellows of Harvard College, priority 2008, published 2015).

Tested on: cytochrome c
Assay: Tandem mass spectrometry of cytochrome c acetylation in transfected SH-SY5Y cells
Format: cell-based, mouse
Conditions: hSIRT3 cotransfected with cytochrome c in SH-SY5Y cells; FIG. 3
Description: SH-SY5Y cells were cultured in Dulbecco's Modified Eagle's Medium (DMEM) supplemented with 10% Fetal Calf Serum (FCS). SH-SY5Y cells were transfected with Lipofectamine 2000 (Invitrogen, Carlsbad, Calif.). Granule neuron cultures were prepared from cerebella of postnatal day 5 mouse pups. Neurons were placed on polyornithine-coated 96-well plates and grown in Basal Medium Eagle (BME) (Sigma, St. Louis, Mo.) supplemented with 10% calf serum (Hyclone Laboratories, Logan, Utah), 25 mM KCl, 2 mM glutamine, penicillin, and streptomycin. One day after cultures were prepared they were treated with 10 μM of the antimitotic agent cytosine-D-arabinofuranoside (Sigma, St. Louis, Mo.) to prevent the proliferation of non-neuronal cells.
A large-scale Flag-immunoprecipitation followed by elution with 3× Flag peptide was performed on cell extracts from 10×15 cm-plates of SH-SY5Y cells transfected with pcDNA-mouse cytochrome c-Flag+/−pcDNA-hSIRT3-HA. Purified proteins were separated by SDS-PAGE, and the band corresponding to cytochrome c was excised and analyzed by MS/MS.

B1: hSIRT3: human SIRT3 deacetylase expressed from transfected pcDNA-hSIRT3-HA vector (protein)
chain: MAFWGWRAAAALRLWGRVVERVEAGGGVGPFQACGCRLVLGGRDDVSAGLRGSHGARGEPLDPARPLQRPPRPEVPRAFRRQPRAAAPSFFFSSIKGGRRSISFSVGASSVVGSGGSSDKGKLSLQDVAELIRARACQRVVVMVGAGISTPSGIPDFRSPGSGLYSNLQQYDLPYPEAIFELPFFFHNPKPFFTLAKELYPGNYKPNVTHYFLRLLHDKGLLLRLYTQNIDGLERVSGIPASKLVEAHGTFASATCTVCQRPFPGEDIRADVMADRVPRCPVCTGVVKPDIVFFGEPLPQRFLLHVVDFPMADLLLILGTSLEVEPFASLTEAVRSSVPRLLINRDLVGPLAWHPRSRDVAQLGDVVHGVESLVELLGWTEEMRDLVQRETGKLDGPDK
modifications: left off: small tags and cut ends
notes: human SIRT3 deacetylase expressed from transfected pcDNA-hSIRT3-HA vector
  acetylation of residues K40 and K74 of cytochrome c: no longer detected
